According to US20220259593A1, “CONTROL OF MAMMALIAN GENE DOSAGE USING CRISPR” (The Regents of the University of California, priority 2019, published 2022):
Numbering of substitutions follows the chain as printed.

B1: cr561 (nucleic acid)
guide: GTTTAAGAGCTAAGCTGGAAACAGCATAGCAAGTTTAAATAAGGCTTGTCCGTTATCAACTTGAAAAAGTGGCACCGAGTCGGTGCT
modifications: listed as DNA, chemistry not fully specified
B2: cr948 (nucleic acid)
guide: B1 guide with T47A, A67G
modifications: listed as DNA, chemistry not fully specified
B3: cr020 (nucleic acid)
guide: B1 guide with G7T, T47A
modifications: listed as DNA, chemistry not fully specified
B4: cr971 (nucleic acid)
guide: B1 guide with T47A, G63A, A65T
modifications: listed as DNA, chemistry not fully specified
B5: cr898 (nucleic acid)
guide: B1 guide with A32C, T47A, A65G
modifications: listed as DNA, chemistry not fully specified
B6: cr494 (nucleic acid)
guide: B1 guide with T47A, A67T
modifications: listed as DNA, chemistry not fully specified
B7: cr715 (nucleic acid)
guide: B1 guide with A31G, T47A
modifications: listed as DNA, chemistry not fully specified
B8: cr801 (nucleic acid)
guide: B1 guide with T47A, A59G, T70C, C73A, C75G, G83C, G85T
modifications: listed as DNA, chemistry not fully specified
B9: cr557 (nucleic acid)
guide: B1 guide with A19C, T47A
modifications: listed as DNA, chemistry not fully specified
B10: cr423 (nucleic acid)
guide: B1 guide with T47A, A59G, T70C, C73T, G85A
modifications: listed as DNA, chemistry not fully specified
B11: cr283 (nucleic acid)
guide: B1 guide with T47A, G72A
modifications: listed as DNA, chemistry not fully specified
B12: cr433 (nucleic acid)
guide: B1 guide with T47A, A66T
modifications: listed as DNA, chemistry not fully specified
B13: cr632 (nucleic acid)
guide: B1 guide with T47A, A64C, A66G
modifications: listed as DNA, chemistry not fully specified
B14: cr701 (nucleic acid)
guide: B1 guide with T47A, G79C
modifications: listed as DNA, chemistry not fully specified
B15: cr941 (nucleic acid)
guide: B1 guide with T47A, C60A, T62G, A67C, G69T, G72A, C86T
modifications: listed as DNA, chemistry not fully specified
B16: cr690 (nucleic acid)
guide: B1 guide with T27G, T47A
modifications: listed as DNA, chemistry not fully specified
B17: cr121 (nucleic acid)
guide: B1 guide with T47A, A59T, T61A, A68T, T70A
modifications: listed as DNA, chemistry not fully specified
B18: cr019 (nucleic acid)
guide: B1 guide with G7C, T47A
modifications: listed as DNA, chemistry not fully specified
B19: cr464 (nucleic acid)
guide: B1 guide with T47A, A59C, T70G, G77A, C81T
modifications: listed as DNA, chemistry not fully specified
B20: cr366 (nucleic acid)
guide: B1 guide with T47A, A59G, T70C, C76T, G82A
modifications: listed as DNA, chemistry not fully specified
B21: cr820 (nucleic acid)
guide: B1 guide with T47A, T62G, A65G, A67C
modifications: listed as DNA, chemistry not fully specified
B22: cr980 (nucleic acid)
guide: B1 guide with T47A, T53C
modifications: listed as DNA, chemistry not fully specified
B23: cr603 (nucleic acid)
guide: B1 guide with T47A, A65G, A66C
modifications: listed as DNA, chemistry not fully specified
B24: cr037 (nucleic acid)
guide: B1 guide with G7T, A8C, T47A
modifications: listed as DNA, chemistry not fully specified
B25: cr619 (nucleic acid)
guide: B1 guide with T47A, A64G
modifications: listed as DNA, chemistry not fully specified
B26: cr323 (nucleic acid)
guide: B1 guide with A32G, T47A, A65C
modifications: listed as DNA, chemistry not fully specified
B27: cr239 (nucleic acid)
guide: B1 guide with T47A, T53C, A64T
modifications: listed as DNA, chemistry not fully specified
B28: cr592 (nucleic acid)
guide: B1 guide with C45T, T47A, G48A
modifications: listed as DNA, chemistry not fully specified
B29: cr428 (nucleic acid)
guide: B1 guide with T47A, A64C, A66T
modifications: listed as DNA, chemistry not fully specified
B30: cr730 (nucleic acid)
guide: B1 guide with T47A, C73G, A74G, C75G, G83C, T84C, G85C
modifications: listed as DNA, chemistry not fully specified
B31: cr925 (nucleic acid)
guide: B1 guide with T47A, A59T, T61G, T62A, A67T, A68C, T70A
modifications: listed as DNA, chemistry not fully specified
B32: cr354 (nucleic acid)
guide: B1 guide with T47A, A59G, T70C, G72A, C73T, G85A, C86T
modifications: listed as DNA, chemistry not fully specified
B33: cr377 (nucleic acid)
guide: B1 guide with T47A, T56G
modifications: listed as DNA, chemistry not fully specified
B34: cr642 (nucleic acid)
guide: B1 guide with A32T, T47A
modifications: listed as DNA, chemistry not fully specified
B35: cr113 (nucleic acid)
guide: B1 guide with T47A, A55T
modifications: listed as DNA, chemistry not fully specified
B36: cr018 (nucleic acid)
guide: B1 guide with G7A, T47A
modifications: listed as DNA, chemistry not fully specified
B37: cr655 (nucleic acid)
guide: B1 guide with T47A, T54C
modifications: listed as DNA, chemistry not fully specified
B38: cr234 (nucleic acid)
guide: B1 guide with T47A, T62C
modifications: listed as DNA, chemistry not fully specified
B39: cr408 (nucleic acid)
guide: B1 guide with T47A, A65G, G72A, C86T
modifications: listed as DNA, chemistry not fully specified
B40: cr302 (nucleic acid)
guide: B1 guide with T47A, T61G, A68C, C73T, A74C, T84G, G85A
modifications: listed as DNA, chemistry not fully specified
B41: cr888 (nucleic acid)
guide: B1 guide with T47A, G63T, A65C
modifications: listed as DNA, chemistry not fully specified

System: K562 CRISPRi cells
Assay: Constant region variant library pooled growth screen, K562
Assay type: cell-based, human
Conditions: sgRNA constant region variants
Procedure, shortened: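 K562 CRISPRi, duplicate transductions; puromycin 1 d 0.75 μg/mL then 1 d 0.85 μg/mL; >2000× coverage in spinner flasks; harvests at 4-8 d growth. Activity = phenotype ÷ phenotype with unmodified constant region.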

[1] = relative to the original, un-modified constant region cr995 (= 1)
[2] = activity relative to the original, un-modified constant region cr995

Row | Molecule | Mean relative activity [1] | Mean relative activity [2]
1 | B1 | 1.021 | 
2 | B2 | 1.02 | 
3 | B3 | 1.02 | 
4 | B4 | 1.017 | 
5 | B5 | 1.014 | 
6 | B6 | 1.016 | 
7 | B7 | 1.008 | 
8 | B8 | 1.02 | 
9 | B9 | 1.018 | 
10 | B10 | 1.012 | 
11 | B11 | 1 .01760152 | 
12 | B12 | 1.012 | 
13 | B13 | 1.008 | 
14 | B14 | 1.016 | 
15 | B15 | 1.016 | 
16 | B16 | 1.011 | 
17 | B17 | 1.014 | 
18 | B18 | 1.019 | 
19 | B19 | 1.017 | 
20 | B20 | 1.017 | 
21 | B21 |  | 1.072

Row | Molecule | Mean relative activity [1] | Mean relative activity [2]
22 | B22 | 1.014 | 
23 | B23 | 1.018 | 
24 | B24 | 1.01 | 
25 | B25 | 1.015 | 
26 | B26 | 1.02 | 
27 | B27 | 1.014 | 
28 | B28 | 1.017 | 
29 | B29 | 1.013 | 
30 | B30 | 1.018 | 
31 | B31 |  | 1.084
32 | B32 | 1.016 | 
33 | B33 | 1.012 | 
34 | B34 | 1.008 | 
35 | B35 | 1.016 | 
36 | B36 | 1.017 | 
37 | B37 | 1.016 | 
38 | B38 |  | 1.075
39 | B39 | 1.018 | 
40 | B40 | 1.016 | 
41 | B41 | 1.02 | 
